Source: patent US20210198360 (published 2021)

T1: mouse PD-L2-Fc (mouse, UniProt Q9WUL5)
T1 chain: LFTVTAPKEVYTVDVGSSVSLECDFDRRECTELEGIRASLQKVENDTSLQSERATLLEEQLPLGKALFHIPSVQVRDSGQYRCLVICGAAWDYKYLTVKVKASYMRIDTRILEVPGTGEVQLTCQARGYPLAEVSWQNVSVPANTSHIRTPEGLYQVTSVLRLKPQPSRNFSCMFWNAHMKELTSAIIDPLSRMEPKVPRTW

T2: human PD-L2-Fc (human, UniProt Q9BQ51)
T2 chain: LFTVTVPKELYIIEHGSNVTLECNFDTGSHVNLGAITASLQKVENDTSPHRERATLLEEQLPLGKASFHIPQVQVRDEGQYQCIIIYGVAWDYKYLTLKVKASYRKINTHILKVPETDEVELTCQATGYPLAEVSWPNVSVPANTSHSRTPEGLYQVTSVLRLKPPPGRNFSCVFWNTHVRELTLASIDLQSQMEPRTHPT

T3: human PD-L2-HIS (human, UniProt Q9BQ51)
T3 chain: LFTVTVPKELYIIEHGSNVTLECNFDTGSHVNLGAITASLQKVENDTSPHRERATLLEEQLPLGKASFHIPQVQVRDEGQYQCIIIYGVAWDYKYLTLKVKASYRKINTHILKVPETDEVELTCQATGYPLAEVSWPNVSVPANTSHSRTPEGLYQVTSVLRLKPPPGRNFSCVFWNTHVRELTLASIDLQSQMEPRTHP


Key:
mouse PD-L2-Fc = target: T1, mouse PD-L2-Fc; test: BLI, bivalent
human PD-L1-Fc [1] = target: human PD-L1-Fc (human); test: BLI, bivalent
Sequence of human PD-L1-Fc (human) (chain, as listed by the source): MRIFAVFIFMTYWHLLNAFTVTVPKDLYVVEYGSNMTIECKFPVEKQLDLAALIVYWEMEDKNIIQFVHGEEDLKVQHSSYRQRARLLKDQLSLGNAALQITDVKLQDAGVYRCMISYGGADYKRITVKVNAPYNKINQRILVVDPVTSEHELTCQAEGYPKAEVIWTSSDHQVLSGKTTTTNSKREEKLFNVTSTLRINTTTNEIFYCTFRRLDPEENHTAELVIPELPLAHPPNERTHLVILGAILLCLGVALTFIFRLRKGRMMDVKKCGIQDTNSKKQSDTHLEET

human PD1-Fc = human PD1-Fc (human, UniProt Q15116); test: BLI, bivalent
Sequence of human PD1-Fc (Q15116 25-170): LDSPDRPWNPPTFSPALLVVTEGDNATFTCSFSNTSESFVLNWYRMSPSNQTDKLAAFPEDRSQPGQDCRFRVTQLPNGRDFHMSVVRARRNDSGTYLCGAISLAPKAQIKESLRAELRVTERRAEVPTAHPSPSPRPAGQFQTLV

human PD-L2-Fc [2] = target: T2, human PD-L2-Fc; test: BLI, bivalent
human PD-L2-HIS = target: T3, human PD-L2-HIS; test: BLI, monovalent
human PD-L2-Fc [3] = target: T2, human PD-L2-Fc; test: BLI, monovalent
mouse PD-L1-Fc [4] = target: T4, mouse PD-L1-Fc (mouse, UniProt Q9EP73); test: BLI, bivalent
T4 sequence (Q9EP73 19-239): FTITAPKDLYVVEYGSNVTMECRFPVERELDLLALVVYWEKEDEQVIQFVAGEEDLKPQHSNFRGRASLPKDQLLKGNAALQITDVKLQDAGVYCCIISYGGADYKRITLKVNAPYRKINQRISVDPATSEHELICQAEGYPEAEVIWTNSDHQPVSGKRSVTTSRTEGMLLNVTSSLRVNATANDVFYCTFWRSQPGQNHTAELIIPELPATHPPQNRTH

human PD-L1-Fc [5] = target: human PD-L1-Fc (human); test: BLI
mouse PD-L1-Fc [6] = target: T4, mouse PD-L1-Fc; test: BLI, bivalent; remark: listed apart in the source

| Binder | binding result (mouse PD-L2-Fc) | Kd (human PD-L1-Fc [1]) | binding result (human PD1-Fc) | binding result (human PD-L2-Fc [2]) | binding result (human PD-L2-HIS) | binding result (human PD-L2-Fc [3]) | binding result (mouse PD-L1-Fc [4]) | Kd (human PD-L1-Fc [5]) | Kd (mouse PD-L1-Fc [6]) |
| --- | --- | --- | --- | --- | --- | --- | --- | --- | --- |
| ADI-20803 (antibody, V domains shown) VH: QVQLVQSGAEVKKPGSSVKVSCKASGGTFRLYAISWVRQAPGQGLEWMGSIIPGFGSANYAQKFQGRVTITADESTSTAYMELSSLRSEDTAVYYCARDGGGGTSAYSFDPWGQGTLVTVSS VL: EIVLTQSPATLSLSPGERATLSCRASQSVSSYLAWYQQKPGQAPRLLIYDASNRATGIPARFSGSGSGTDFTLTISSLEPEDFAVYYCQQSINFPYTFGGGTKVEIK | no binding | 0.188 nM | no binding | no binding | no binding |  |  |  |  |
| ADI-20803 Fab (antibody, V domains shown) VH: QVQLVQSGAEVKKPGSSVKVSCKASGGTFRLYAISWVRQAPGQGLEWMGSIIPGFGSANYAQKFQGRVTITADESTSTAYMELSSLRSEDTAVYYCARDGGGGTSAYSFDPWGQGTLVTVSS VL: EIVLTQSPATLSLSPGERATLSCRASQSVSSYLAWYQQKPGQAPRLLIYDASNRATGIPARFSGSGSGTDFTLTISSLEPEDFAVYYCQQSINFPYTFGGGTKVEIK |  |  |  |  |  | no binding |  |  |  |
| ADI-20227 (antibody, V domains shown) VH: QVQLQESGPGLVKPSQTLSLTCTVSGGSIVSGGLYWSWIRQHPGKGLEWIGYIYYAGVTYYNPSLKSRVTISVDTSKNQFSLKLSSVTAADTAVYYCARGPRMGLAGMDVWGQGTTVTVSS VL: DIQMTQSPSSVSASVGDRVTITCRASQGISSWLAWYQQKPGKAPKLLIYAASSLQSGVPSRFSGSGSGTDFTLTISSLQPEDFATYYCQQANSFPITFGGGTKVEIK | no binding |  | no binding | no binding | no binding |  |  | 0.179 nM | 0.101 nM |

Other lines, results leading:

| binding result (mouse PD-L2-Fc) | Kd (human PD-L1-Fc [1]) | binding result (human PD1-Fc) | binding result (human PD-L2-Fc [2]) | binding result (human PD-L2-HIS) | binding result (human PD-L2-Fc [3]) | binding result (mouse PD-L1-Fc [4]) | Kd (human PD-L1-Fc [5]) | Kd (mouse PD-L1-Fc [6]) | Binder |
| --- | --- | --- | --- | --- | --- | --- | --- | --- | --- |
| no binding |  | no binding | no binding |  |  | no binding |  |  | ADI-16403 (antibody, V domains shown) VH: EVQLVESGGGLVQPGGSLRLSCAASGFTFSSYWMSWVRQAPGKGLEWVANIKSDGSEKYYVDSVKGRFTISRDNAKNSLYLQMNSLRAEDTAVYYCARVTYWADYMDVWGKGTTVTVSS VL: DIQMTQSPSTLSASVGDRVTITCRASQSISSWLAWYQQKPGKAPKLLIYKASSLESGVPSRFSGSGSGTEFTLTISSLQPDDFATYYCQQSGSLPPTFGGGTKVEIK |
|  |  |  |  |  | no binding |  |  |  | ADI-20227 Fab (antibody, V domains shown) VH: QVQLQESGPGLVKPSQTLSLTCTVSGGSIVSGGLYWSWIRQHPGKGLEWIGYIYYAGVTYYNPSLKSRVTISVDTSKNQFSLKLSSVTAADTAVYYCARGPRMGLAGMDVWGQGTTVTVSS VL: DIQMTQSPSSVSASVGDRVTITCRASQGISSWLAWYQQKPGKAPKLLIYAASSLQSGVPSRFSGSGSGTDFTLTISSLQPEDFATYYCQQANSFPITFGGGTKVEIK |
